From patent US20230295327A1 (KANAPH THERAPEUTICS, published 2023) come the findings set out here.

Assay [1] deals with T1, human CD20 on Raji and Ramos cells (human, UniProt P11836 1-297).
T1 sequence (looked up): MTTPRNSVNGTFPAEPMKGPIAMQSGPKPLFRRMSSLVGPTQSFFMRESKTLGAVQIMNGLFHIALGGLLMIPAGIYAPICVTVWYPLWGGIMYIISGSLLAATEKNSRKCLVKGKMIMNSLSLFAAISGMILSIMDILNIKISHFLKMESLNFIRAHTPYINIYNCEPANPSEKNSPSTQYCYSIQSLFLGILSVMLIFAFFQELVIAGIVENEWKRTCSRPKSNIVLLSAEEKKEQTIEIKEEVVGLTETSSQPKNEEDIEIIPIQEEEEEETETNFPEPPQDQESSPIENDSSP
The assay is described as follows: cell-based or functional assay.

Assay [2] concerns the target IL-12 receptor of human T cells (human, UniProt P42701 24-662; Q99665 24-862). The assay is described as follows: cell-based or functional assay.

IL-12 receptor of human T cells, sequence (Q99665 24-862, chain 2 of 2, other chains not shown): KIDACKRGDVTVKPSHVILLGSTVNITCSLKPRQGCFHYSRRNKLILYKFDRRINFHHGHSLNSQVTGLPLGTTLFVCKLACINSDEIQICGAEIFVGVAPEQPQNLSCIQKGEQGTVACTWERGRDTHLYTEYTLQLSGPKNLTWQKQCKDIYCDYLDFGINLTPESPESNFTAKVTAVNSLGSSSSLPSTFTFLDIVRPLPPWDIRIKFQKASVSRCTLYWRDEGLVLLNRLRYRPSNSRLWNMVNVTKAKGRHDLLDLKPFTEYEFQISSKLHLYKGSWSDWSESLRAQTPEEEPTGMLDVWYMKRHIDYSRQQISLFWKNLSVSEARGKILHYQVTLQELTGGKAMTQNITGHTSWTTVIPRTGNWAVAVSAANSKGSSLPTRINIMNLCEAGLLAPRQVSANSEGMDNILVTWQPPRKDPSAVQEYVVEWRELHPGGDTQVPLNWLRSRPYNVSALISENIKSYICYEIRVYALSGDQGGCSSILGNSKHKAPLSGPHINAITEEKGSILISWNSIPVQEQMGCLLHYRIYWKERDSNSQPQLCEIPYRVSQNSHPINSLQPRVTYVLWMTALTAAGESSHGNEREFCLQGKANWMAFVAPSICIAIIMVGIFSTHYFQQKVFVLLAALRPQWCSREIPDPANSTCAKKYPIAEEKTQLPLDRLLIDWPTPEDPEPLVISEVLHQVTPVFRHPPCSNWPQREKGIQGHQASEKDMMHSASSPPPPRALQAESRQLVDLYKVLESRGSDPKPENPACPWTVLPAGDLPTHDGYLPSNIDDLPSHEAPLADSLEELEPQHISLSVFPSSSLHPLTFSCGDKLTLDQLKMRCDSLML

B1: Rituximab (anti-hu CD20 monoclonal antibody) (antibody, human IgG1, kappa, V domains shown)
VH: QVQLQQPGAELVKPGASVKMSCKASGYTFTSYNMHWVKQTPGRGLEWIGAIYPGNGDTSYNQKFKGKATLTADKSSSTAYMQLSSLTSEDSAVYYCARSTYYGGDWYFNVWGAGTTVTVSA
VL: QIVLSQSPAILSASPGEKVTMTCRASSSVSYIHWFQQKPGSSPKPWIYATSNLASGVPVRFSGSGSGTSYSLTISRVEAEDAATYYCQQWTSNPPTFGGGTKLEIKR
In the case of B1, the “ADCC Reporter Bioassay on Raji target cells, 50% effective concentration (EC50)” value in assay [1] turned out to be 31100 ng/mL.

B2: T2.01 (anti-hu CD20/hu IL-12, hu IgG1) (bispecific antibody)
heavy: not shown
light: QIVLSQSPAILSASPGEKVTMTCRASSSVSYIHWFQQKPGSSPKPWIYATSNLASGVPVRFSGSGSGTSYSLTISRVEAEDAATYYCQQWTSNPPTFGGGTKLEIKRTVAAPSVFIFPPSDEQLKSGTASVVCLLNNFYPREAKVQWKVDNALQSGNSQESVTEQDSKDSTYSLSSTLTLSKADYEKHKVYACEVTHQGLSSPVTKSFNRGEC
chain: not shown
Turning to B2, the “p-STAT4 (Tyr693) AlphaLISA in activated human T cells, EC50” value in assay [2] was determined as 0.555 ng/mL.

B3: T2.02 (anti-hu CD20/hu IL-12 mut1, hu IgG1) (bispecific antibody)
heavy: not shown
light: QIVLSQSPAILSASPGEKVTMTCRASSSVSYIHWFQQKPGSSPKPWIYATSNLASGVPVRFSGSGSGTSYSLTISRVEAEDAATYYCQQWTSNPPTFGGGTKLEIKRTVAAPSVFIFPPSDEQLKSGTASVVCLLNNFYPREAKVQWKVDNALQSGNSQESVTEQDSKDSTYSLSSTLTLSKADYEKHKVYACEVTHQGLSSPVTKSFNRGEC
chain: not shown
Turning to B3, in assay [2], the “p-STAT4 (Tyr693) AlphaLISA in activated human T cells, EC50” value stood at 1.55 ng/mL.
